Reference: patent US20230295298A1 (PRECISION BIOLOGICS, published 2023)
Changes are numbered by the printed parent chain.

B1: humanized 31.1 antibody #5 (abb31.1-HC + cdr31.1-LC) (antibody, human IgG1, kappa, V domains shown)
VH: QIQLVQSGAEVKKPGASVKVSCKASGYTFTNYGMNWVRQAPGKGLEWMGWINTYTGEPTYAQKFQGRVTFTLDTSISTAYMELSRLRSDDTAVYFCARAYYGKYFDYWGQGTTVTVSS
VL: SIVMTQSPSSLSASVGDRVTITCKASQSVSNDVAWYQQKPGQSPKLLIYYASNRYTGVPDRFSGSGYGTDFTLTISSLQPEDFAVYFCQQDYSSPLTFGAGTKLEIKR
notes: Full heavy and light chains; supernatant in the first screen, Protein A/G purified in the second round; also called Sample ID 5; abb-HC + cdr-LC
B2: humanized 31.1 antibody #14 (ven-HC + abb-LC) (antibody, human IgG1, kappa, V domains shown)
VH: QIQLVQSGPEVKKPGASVKISCKASGYTFTNYGMNWVKQAPGQGLKWMGWINTYTGEPTYADDFKGRFAFTLDTSISTAYLEISRLRSDDTAVYFCARAYYGKYFDYWGQGTTLTVSS
VL: B1 VL with V3Q, K24R, T56S
notes: Full heavy and light chains; transient Expi293 expression, tested as culture supernatant; also called Sample ID 14; ven31.1-HC + abb31.1-LC
B3: humanized 31.1 antibody #16 (ven31.1-HC + ven31.1-LC) (antibody, human IgG1, kappa, V domains shown)
VH: B2 VH
VL: B1 VL with A13V, L73F, L78V, F83L, I106L
notes: Full heavy and light chains; supernatant in the first screen, Protein A/G purified in the third round; also called Sample ID 16; ven-HC + ven-LC
B4: humanized 31.1 antibody #10 (sdr-HC + abb-LC) (antibody, human IgG1, kappa, V domains shown)
VH: B1 VH with T53P
VL: B1 VL with V3Q, K24R, T56S
notes: Full heavy and light chains; transient Expi293 expression, tested as culture supernatant; also called Sample ID 10; sdr31.1-HC + abb31.1-LC
B5: humanized 31.1 antibody #6 (abb31.1-HC + abb31.1-LC) (antibody, human IgG1, kappa, V domains shown)
VH: B1 VH
VL: B1 VL with V3Q, K24R, T56S
notes: Full heavy and light chains; supernatant in the first screen, Protein A/G purified in the second round; also called Sample ID 6; abb-HC + abb-LC
B6: humanized 31.1 antibody #15 (ven-HC + sdr-LC) (antibody, human IgG1, kappa, V domains shown)
VH: B2 VH
VL: B1 VL with V3Q, K24R, V29I, V33L
notes: Full heavy and light chains; transient Expi293 expression, tested as culture supernatant; also called Sample ID 15; ven31.1-HC + sdr31.1-LC
B7: humanized 31.1 antibody #13 (ven-HC + cdr-LC) (antibody, human IgG1, kappa, V domains shown)
VH: B2 VH
VL: B1 VL
notes: Full heavy and light chains; transient Expi293 expression, tested as culture supernatant; also called Sample ID 13; ven31.1-HC + cdr31.1-LC
B8: humanized 31.1 antibody #2 (cdr-HC + abb-LC) (antibody, human IgG1, kappa, V domains shown)
VH: B2 VH with P9A, I20V, Q43K, L81M, I83L, L114V
VL: B1 VL with V3Q, K24R, T56S
notes: Full heavy and light chains; transient Expi293 expression, tested as culture supernatant; also called Sample ID 2; cdr31.1-HC + abb31.1-LC
B9: humanized 31.1 antibody #1 (cdr-HC + cdr-LC) (antibody, human IgG1, kappa, V domains shown)
VH: B2 VH with P9A, I20V, Q43K, L81M, I83L, L114V
VL: B1 VL
notes: Full heavy (448 aa) and light (214 aa) chains; transient Expi293 expression, tested as culture supernatant; also called Sample ID 1; cdr31.1-HC + cdr31.1-LC
B10: humanized 31.1 antibody #7 (abb-HC + sdr-LC) (antibody, human IgG1, kappa, V domains shown)
VH: B1 VH
VL: B1 VL with V3Q, K24R, V29I, V33L
notes: Full heavy and light chains; transient Expi293 expression, tested as culture supernatant; also called Sample ID 7; abb31.1-HC + sdr31.1-LC
B11: humanized 31.1 antibody #9 (sdr-HC + cdr-LC) (antibody, human IgG1, kappa, V domains shown)
VH: B1 VH with T53P
VL: B1 VL
notes: Full heavy and light chains; transient Expi293 expression, tested as culture supernatant; also called Sample ID 9; sdr31.1-HC + cdr31.1-LC
B12: humanized 31.1 antibody #12 (sdr-HC + ven-LC) (antibody, human IgG1, kappa, V domains shown)
VH: B1 VH with T53P
VL: B1 VL with A13V, L73F, L78V, F83L, I106L
notes: Full heavy and light chains; transient Expi293 expression, tested as culture supernatant; also called Sample ID 12; sdr31.1-HC + ven31.1-LC
B13: humanized 31.1 antibody #8 (abb-HC + ven-LC) (antibody, human IgG1, kappa, V domains shown)
VH: B1 VH
VL: B1 VL with A13V, L73F, L78V, F83L, I106L
notes: Full heavy and light chains; transient Expi293 expression, tested as culture supernatant; also called Sample ID 8; abb31.1-HC + ven31.1-LC
B14: humanized 31.1 antibody #4 (cdr-HC + ven-LC) (antibody, human IgG1, kappa, V domains shown)
VH: B2 VH with P9A, I20V, Q43K, L81M, I83L, L114V
VL: B1 VL with A13V, L73F, L78V, F83L, I106L
notes: Full heavy and light chains; transient Expi293 expression, tested as culture supernatant; also called Sample ID 4; cdr31.1-HC + ven31.1-LC
B15: humanized 31.1 antibody #3 (cdr-HC + sdr-LC) (antibody, human IgG1, kappa, V domains shown)
VH: B2 VH with P9A, I20V, Q43K, L81M, I83L, L114V
VL: B1 VL with V3Q, K24R, V29I, V33L
notes: Full heavy and light chains; transient Expi293 expression, tested as culture supernatant; also called Sample ID 3; cdr31.1-HC + sdr31.1-LC
B16: H31.1 #5-biotin (antibody, human IgG1, kappa, V domains shown)
VH: B1 VH
VL: B1 VL
modifications: biotinylated antibody, sites not stated
notes: Biotinylated form of antibody #5; also called biotinylated #5; biotinylated h31.1 #5
B17: H31.1 #6-biotin (antibody, human IgG1, kappa, V domains shown)
VH: B1 VH
VL: B1 VL with V3Q, K24R, T56S
modifications: biotinylated antibody, sites not stated
notes: Biotinylated form of antibody #6; also called biotinylated #6; biotinylated h31.1 #6

Molecular target: T1, human A33 antigen, full length, on cells (human, UniProt Q99795 22-319)
T1 construct: CHO cells transfected with full length A33 cDNA (A33-CHO), or endogenous antigen of LS174T (colon) and AsPC-1 (pancreatic) tumour cells; The cell line is named under assay; also called A33-CHO; A33 antigen on LS174T cells
T1 sequence: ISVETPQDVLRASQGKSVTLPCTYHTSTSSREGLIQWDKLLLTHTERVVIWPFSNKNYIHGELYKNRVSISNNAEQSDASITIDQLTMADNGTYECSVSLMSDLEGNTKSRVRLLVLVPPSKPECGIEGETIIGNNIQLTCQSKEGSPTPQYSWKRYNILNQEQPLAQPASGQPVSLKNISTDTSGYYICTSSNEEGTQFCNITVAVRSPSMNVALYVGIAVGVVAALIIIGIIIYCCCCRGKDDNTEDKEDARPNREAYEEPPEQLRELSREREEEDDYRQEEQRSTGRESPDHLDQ
Assay: IHC on LS174T FFPE sections, 20ug/mL, first result

Going from B1 to B2, the “H-Score of IHC” value falls from 240 H-Score to 125 H-Score.

Compared with B3, B4 is higher in “H-Score of IHC” value: 0 H-Score for the first, 240 H-Score for the second.

With B5 the “H-Score of IHC” value was 230 H-Score.

Molecular target: T2, human recombinant A33 antigen (human, UniProt Q99795 22-235)
T2 construct: also called rH-GPA33; rHGPA33
T2 sequence: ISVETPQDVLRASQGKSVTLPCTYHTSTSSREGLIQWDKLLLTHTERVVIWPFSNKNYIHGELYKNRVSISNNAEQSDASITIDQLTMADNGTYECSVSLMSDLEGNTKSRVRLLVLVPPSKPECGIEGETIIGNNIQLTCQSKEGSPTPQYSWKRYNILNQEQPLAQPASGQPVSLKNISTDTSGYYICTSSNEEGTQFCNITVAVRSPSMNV
Assay: rH-GPA33 binding ELISA, 2ug/mL of 31.1, supernatant
Method: (§1) Human IgG ELISA, rH-GPA33 Binding ELISA, cell Flow Cytometry (LS174T or AsPAC1), IHC staining (LS174T FFPE, tumor FFPE and Frozen tumor sections) and Coomassie blue staining of SDS-PAGE gel were used for the screening. Antibody in the culture supernatant was purified by Protein A/G purification in the column and dissolved in PBS buffer after three times dialysis. Aliquots of the antibodies were kept at -20° C. for storage.
(§2) Each combination was produced by transient transfection by using Expi293 Expression System Kit (Gibco, cat# A14635). […] Methods of Human IgG ELISA, rH-GPA33 Binding ELISA, LS174T cell Flow Cytometry, IHC staining on LS174T FFPE sections and Coomassie blue staining of SDS-PAGE gel were used for the initial screening.

Compared with B1, B6 is lower in “OD Value of rH-GPA33 Binding ELISA” value: 0.85 OD for the first, 0.46 OD for the second.

First: B2
Second: B7
The “OD Value of rH-GPA33 Binding ELISA” value of the first is higher: 1.44 OD for the first, 1.27 OD for the second.

Going from B3 to B8, the “OD Value of rH-GPA33 Binding ELISA” value falls from 1.74 OD to 0.86 OD.

Going from B4 to B9, the “OD Value of rH-GPA33 Binding ELISA” value rises from 0.07 OD to 0.8 OD.

Going from B10 to B11, the “OD Value of rH-GPA33 Binding ELISA” value falls from 0.2 OD to 0.07 OD.

Going from B12 to B13, the “OD Value of rH-GPA33 Binding ELISA” value rises from 0.06 OD to 1.2 OD.

Going from B14 to B5, the “OD Value of rH-GPA33 Binding ELISA” value falls from 1.27 OD to 0.74 OD.

With B15 the “OD Value of rH-GPA33 Binding ELISA” value was 0.29 OD.

Molecular target: T1, human A33 antigen, full length, on cells
Assay: IHC on LS174T FFPE sections, 20ug/mL, repeat result

Going from B1 to B2, the “H-Score of IHC” value falls from 100 H-Score to 30 H-Score.

Compared with B3, B4 is higher in “H-Score of IHC” value: 0 H-Score for the first, 115 H-Score for the second.

For B5, the “H-Score of IHC” value was 240 H-Score.

Molecular target: T1, human A33 antigen, full length, on cells
Assay: flow cytometry on LS174T cells, 0.37ug/mL
Method: as §1, §2

First: B1
Second: B6
The MFI of the first is higher: 804 MFI for the first, 689 MFI for the second.

Compared with B2, B7 is higher in MFI: 1060 MFI for the first, 1150 MFI for the second.

First: B3
Second: B8
The MFI of the first is higher: 966 MFI for the first, 821 MFI for the second.

Going from B4 to B9, the MFI rises from 6.2 MFI to 878 MFI.

Compared with B10, B11 is lower in MFI: 481 MFI for the first, 6.65 MFI for the second.

Compared with B12, B13 is higher in MFI: 10.6 MFI for the first, 934 MFI for the second.

First: B14
Second: B5
The MFI of the first is higher: 726 MFI for the first, 628 MFI for the second.

B15 was tested, and the MFI was 520 MFI.

Molecular target: T1, human A33 antigen, full length, on cells
Assay: flow cytometry, AsPC-1 cells (first AsPC-1 column)

Compared with B1, B16 is 1.7-fold higher in EC50: 0.235 µg/mL for the first, 0.408 µg/mL for the second.

B5 and B17 are within 1.5-fold of each other in EC50: 0.276 µg/mL for the first, 0.368 µg/mL for the second.

Molecular target: T2, human recombinant A33 antigen
Assay: rH-GPA33 binding ELISA

First: B1
Second: B16
The EC50 of the first is 1.7-fold lower: 0.396 µg/mL for the first, 0.679 µg/mL for the second.

Going from B5 to B17, the EC50 rises from 1.23 µg/mL to 12.8 µg/mL (10-fold).

Molecular target: T1, human A33 antigen, full length, on cells
Assay: IHC on LS174T FFPE sections, 20ug/mL
Method: as §1, §2

Compared with B6, B7 is lower in “H-Score of IHC” value: 90 H-Score for the first, 20 H-Score for the second.

B8 and B9 are the same in “H-Score of IHC” value: 0 H-Score for the first, 0 H-Score for the second.

Going from B10 to B11, the “H-Score of IHC” value rises from 120 H-Score to 150 H-Score.

First: B12
Second: B13
The “H-Score of IHC” value of the first is lower: 30 H-Score for the first, 125 H-Score for the second.

B14 and B15 are the same in “H-Score of IHC” value: 0 H-Score for the first, 0 H-Score for the second.

Molecular target: T1, human A33 antigen, full length, on cells
Assay: flow cytometry, AsPC-1 cells (second AsPC-1 column)

B1 and B5 are within 1.5-fold of each other in EC50: 0.122 µg/mL for the first, 0.152 µg/mL for the second.

Molecular target: T1, human A33 antigen, full length, on cells
Assay: flow cytometry, LS-174T cells

B1 and B5 are within 1.5-fold of each other in EC50: 0.0625 µg/mL for the first, 0.0809 µg/mL for the second.
